The target of assay [1] is histone H3 amino acids 16-35, H3K27me3 peptide (UniProt P68431). Briefly: peptide or protein array.
The target in assay [2] is histone H3 amino acids 16-35, H3K27me2 peptide (UniProt P68431). Description: peptide or protein array.

Consider “GST-tagged PWWP1 domain of Apis mellifera DNMT3 (domain or fragment)”, for which the figures for the fold increase in binding over the corresponding unmodified peptide in assay [1] and in assay [2] were 3 fold and 5 fold, respectively.

On to “GST-tagged PWWP2 domain of Apis mellifera DNMT3 (domain or fragment)”, for which the fold increase in binding over the unmodified peptide in assay [1] and in assay [2] was 3 fold throughout.

The values are drawn from PMC10618690.
